Laboratory results from US20190315854A1 (BEIJING VDJBIO, published 2019).
Positions count from the first letter of the chain named. Where two headings read alike, the source gives them in different places.

T1: sIL-6R (soluble IL-6 receptor; SBH Sciences) (human, UniProt P08887 20-365)
T1 construct: also called human IL-6R
T1 sequence: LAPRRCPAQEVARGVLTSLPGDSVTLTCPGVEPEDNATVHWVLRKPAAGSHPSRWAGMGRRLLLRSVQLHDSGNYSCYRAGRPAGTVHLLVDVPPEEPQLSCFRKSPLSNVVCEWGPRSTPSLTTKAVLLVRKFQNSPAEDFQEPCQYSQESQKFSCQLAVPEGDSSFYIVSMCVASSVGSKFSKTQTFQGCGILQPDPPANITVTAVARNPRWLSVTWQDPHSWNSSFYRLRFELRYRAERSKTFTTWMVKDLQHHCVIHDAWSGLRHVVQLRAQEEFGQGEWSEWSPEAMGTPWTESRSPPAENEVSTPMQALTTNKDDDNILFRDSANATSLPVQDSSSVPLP

B1: 12# (antibody, human IgG1, kappa, V domains shown)
VH: QVQLQESGPGLVRPSQTLSLTCTVSGYSITSDHAWSWVRQPPGRGLEWIGFISYSGITTYNPSLKSRVTMLRDTSKNQFSLRLSSVTAADTAVYYCARCLARATAMDYWGQGSLVTVSS
VL: DIQMTQSPSSLSASVGDRVTITCRASQDISSYLNWYQQKPGKAPKLLIYYTSRLHSGVPSRFSGSGSGTDFTFTISSLQPEDIATYYCQQGNTLPYTFGQGTKVEIKR
notes: also called Sample # 12
B2: 208# (antibody, human IgG1, kappa, V domains shown)
VH: B1 VH with I57M, C99S
VL: B1 VL
notes: also called Sample # 208
B3: 28# (antibody, human IgG1, kappa, V domains shown)
VH: B1 VH with I57M, C99S, A103T
VL: B1 VL
notes: also called Sample # 28
B4: 64# (antibody, human IgG1, kappa, V domains shown)
VH: B1 VH with I57M, A103M
VL: B1 VL
notes: also called Sample # 64
B5: 24# (antibody, human IgG1, kappa, V domains shown)
VH: B1 VH with F51Y, A103I
VL: B1 VL
notes: also called Sample # 24
B6: 17# (antibody, human IgG1, kappa, V domains shown)
VH: B1 VH with A103T
VL: B1 VL
notes: also called Sample # 17
B7: 30# (antibody, human IgG1, kappa, V domains shown)
VH: B1 VH with I57M, A103T
VL: B1 VL
notes: also called Sample # 30
B8: 16# (antibody, human IgG1, kappa, V domains shown)
VH: B1 VH with C99S, A103I
VL: B1 VL
notes: also called Sample # 16
B9: 27# (antibody, human IgG1, kappa, V domains shown)
VH: B1 VH with I57M, C99S
VL: B1 VL
notes: also called Sample # 27
B10: 14# (antibody, human IgG1, kappa, V domains shown)
VH: B1 VH with C99S, A103I
VL: B1 VL
notes: also called Sample # 14
B11: 62# (antibody, human IgG1, kappa, V domains shown)
VH: B1 VH with I57M
VL: B1 VL
notes: also called Sample # 62
B12: 248# (antibody, human IgG1, kappa, V domains shown)
VH: B1 VH with F51Y, I57M, T58I, C99T, A103M, M106I, Y108F
VL: B1 VL with Q89G, T93R
notes: also called Sample # 248
B13: 60# (antibody, human IgG1, kappa, V domains shown)
VH: B1 VH with I57M, C99S, A103I
VL: B1 VL
notes: also called Sample # 60
B14: 15# (antibody, human IgG1, kappa, V domains shown)
VH: B1 VH with A103I
VL: B1 VL
notes: also called Sample # 15
B15: 18# (antibody, human IgG1, kappa, V domains shown)
VH: B1 VH with A103I
VL: B1 VL
notes: also called Sample # 18
B16: 247# (antibody, human IgG1, kappa, V domains shown)
VH: B1 VH with F51Y, I57M, A103M
VL: B1 VL with Q89G, T93R
notes: also called Sample # 247
B17: 56# (antibody, human IgG1, kappa, V domains shown)
VH: B1 VH with I57M, T58I, C99S, A103I
VL: B1 VL
notes: also called Sample # 56
B18: 51# (antibody, human IgG1, kappa, V domains shown)
VH: B1 VH with F51Y, A103M
VL: B1 VL
notes: also called Sample # 51
B19: 68# (antibody, human IgG1, kappa, V domains shown)
VH: B1 VH with I57M, A103I, M106I, W109F
VL: B1 VL
notes: also called Sample # 68
B20: 49# (antibody, human IgG1, kappa, V domains shown)
VH: B1 VH with F51Y, P62A, C99S, A103T
VL: B1 VL
notes: also called Sample # 49
B21: 66# (antibody, human IgG1, kappa, V domains shown)
VH: B1 VH with I57M, C99S, A103M
VL: B1 VL
notes: also called Sample # 66
B22: 249# (antibody, human IgG1, kappa, V domains shown)
VH: B1 VH with F51Y, I57M
VL: B1 VL with Q89G, T93R
B23: 201# (antibody, human IgG1, kappa, V domains shown)
VH: B1 VH with I57M, A103I, M106I, Y108F
VL: B1 VL
notes: also called Sample # 201
B24: 31# (antibody, human IgG1, kappa, V domains shown)
VH: B1 VH with I57M, C99S, A103I
VL: B1 VL
notes: also called Sample # 31
B25: 203# (antibody, human IgG1, kappa, V domains shown)
VH: B1 VH with F51Y, A103M
VL: B1 VL with Q89G, T93R
notes: also called Sample # 203

How the values were obtained:
Test in all cases: SPR (BIAcore 3000), antibody on chip, sIL-6R analyte, 25 C
[1] = target: T1, sIL-6R (soluble IL-6 receptor; SBH …)
Protocol: (§1) All SPR measurements were performed on a BIAcore 3000 instrument (GE Biosciences, Piscataway, N.J.). BIAcore Software-BIAcore 3000 Control Software V3.2 was used for the operation and control of the BIAcore 3000 instrument. BiaEvaluation Software V4.1 was used for the analysis of SPR data from the BIAcore 3000 instrument and data was plotted using Graph Pad Prism Software Version 5. […] The indicated antibodies were used as the ligand for the construction of the reference channel of the chip. […] Each sample was injected for 3 min at a flow rate of 30 μL/min to allow for binding to chip-bound antibody. Next, binding buffer without analyte was sent over the chip at the same flow rate to allow for dissociation of bound analyte. After 500s, remaining bound analyte was removed by injecting regeneration solution (1M Formic acid). Data was analyzed by using the Kinetics Wizard and the manual fitting programs that are both included with the BiaEvaluation Software V4.1.

[2] = target: T1, sIL-6R (soluble IL-6 receptor; SBH …); remark: listed apart in the source
Protocol: as §1

[3] = target: T1, sIL-6R (soluble IL-6 receptor; SBH …); remark: listed apart in the source
Protocol: as §1

[4] = target: T1, sIL-6R (soluble IL-6 receptor; SBH …); remark: listed apart in the source
Protocol: as §1

| Binder | Kd [1] | Relative Affinity [1] | koff [1] | kon [1] | Kd [2] | Relative Affinity [2] | koff [2] | kon [2] | Kd [3] | Relative Affinity [3] | koff [3] | kon [3] | Kd [4] | Relative Affinity [4] | koff [4] | kon [4] |
| --- | --- | --- | --- | --- | --- | --- | --- | --- | --- | --- | --- | --- | --- | --- | --- | --- |
| B1 | 0.418 nM | 4.1 fold vs 25 (Tocilizumab) | 0.000126 s⁻¹ | 302000 M⁻¹ s⁻¹ | 0.288 nM | 4.6 fold vs 25 (Tocilizumab) | 8.32e-05 s⁻¹ | 289000 M⁻¹ s⁻¹ |  |  |  |  |  |  |  |  |
| B2 |  |  |  |  |  |  |  |  | 0.126 nM | 22.6 fold vs 25 (Tocilizumab) | 2.79e-05 s⁻¹ | 221000 M⁻¹ s⁻¹ |  |  |  |  |
| B3 | 0.408 nM | 4.2 fold vs 25 (Tocilizumab) | 0.000148 s⁻¹ | 363000 M⁻¹ s⁻¹ | 0.268 nM | 5 fold vs 25 (Tocilizumab) | 7.61e-05 s⁻¹ | 284000 M⁻¹ s⁻¹ |  |  |  |  |  |  |  |  |
| B4 |  |  |  |  |  |  |  |  | 0.133 nM | 21.4 fold vs 25 (Tocilizumab) | 2.85e-05 s⁻¹ | 214000 M⁻¹ s⁻¹ |  |  |  |  |
| B5 | 0.317 nM | 5.4 fold vs 25 (Tocilizumab) | 7.99e-05 s⁻¹ | 252000 M⁻¹ s⁻¹ | 0.281 nM | 4.8 fold vs 25 (Tocilizumab) | 7.13e-05 s⁻¹ | 254000 M⁻¹ s⁻¹ |  |  |  |  |  |  |  |  |
| B6 | 0.354 nM | 4.8 fold vs 25 (Tocilizumab) | 0.000117 s⁻¹ | 331000 M⁻¹ s⁻¹ | 0.304 nM | 4.4 fold vs 25 (Tocilizumab) | 8.71e-05 s⁻¹ | 287000 M⁻¹ s⁻¹ |  |  |  |  |  |  |  |  |
| B7 | 0.255 nM | 6.7 fold vs 25 (Tocilizumab) | 8.33e-05 s⁻¹ | 327000 M⁻¹ s⁻¹ | 0.235 nM | 5.7 fold vs 25 (Tocilizumab) | 7.03e-05 s⁻¹ | 299000 M⁻¹ s⁻¹ |  |  |  |  |  |  |  |  |
| B8 | 0.187 nM | 9.1 fold vs 25 (Tocilizumab) | 6.3e-05 s⁻¹ | 336000 M⁻¹ s⁻¹ | 0.136 nM | 9.8 fold vs 25 (Tocilizumab) | 4.04e-05 s⁻¹ | 296000 M⁻¹ s⁻¹ |  |  |  |  |  |  |  |  |
| B9 | 0.126 nM | 13.6 fold vs 25 (Tocilizumab) | 4.27e-05 s⁻¹ | 339000 M⁻¹ s⁻¹ | 0.102 nM | 13.1 fold vs 25 (Tocilizumab) | 3.46e-05 s⁻¹ | 339000 M⁻¹ s⁻¹ |  |  |  |  |  |  |  |  |
| B10 | 0.261 nM | 6.6 fold vs 25 (Tocilizumab) | 9.75e-05 s⁻¹ | 374000 M⁻¹ s⁻¹ | 0.181 nM | 7.4 fold vs 25 (Tocilizumab) | 5.69e-05 s⁻¹ | 314000 M⁻¹ s⁻¹ |  |  |  |  |  |  |  |  |
| B11 |  |  |  |  |  |  |  |  | 0.0258 nM | 110 fold vs 25 (Tocilizumab) | 6.61e-06 s⁻¹ | 256000 M⁻¹ s⁻¹ |  |  |  |  |
| B12 |  |  |  |  |  |  |  |  |  |  |  |  | 0.189 nM | 14.8 fold vs 25 (Tocilizumab) | 1.73e-05 s⁻¹ | 91200 M⁻¹ s⁻¹ |
| B13 |  |  |  |  |  |  |  |  | 0.205 nM | 13.9 fold vs 25 (Tocilizumab) | 4.59e-05 s⁻¹ | 224000 M⁻¹ s⁻¹ |  |  |  |  |
| B14 | 0.2 nM | 8.6 fold vs 25 (Tocilizumab) | 5.97e-05 s⁻¹ | 298000 M⁻¹ s⁻¹ | 0.145 nM | 9.2 fold vs 25 (Tocilizumab) | 4.49e-05 s⁻¹ | 310000 M⁻¹ s⁻¹ |  |  |  |  |  |  |  |  |
| B15 | 0.167 nM | 10.2 fold vs 25 (Tocilizumab) | 5.42e-05 s⁻¹ | 325000 M⁻¹ s⁻¹ | 0.141 nM | 9.5 fold vs 25 (Tocilizumab) | 4.73e-05 s⁻¹ | 335000 M⁻¹ s⁻¹ |  |  |  |  |  |  |  |  |
| B16 |  |  |  |  |  |  |  |  |  |  |  |  | 0.212 nM | 13.2 fold vs 25 (Tocilizumab) | 3.54e-05 s⁻¹ | 167000 M⁻¹ s⁻¹ |
| B17 |  |  |  |  |  |  |  |  | 0.243 nM | 11.7 fold vs 25 (Tocilizumab) | 5.59e-05 s⁻¹ | 230000 M⁻¹ s⁻¹ |  |  |  |  |
| B18 |  |  |  |  |  |  |  |  | 0.42 nM | 6.8 fold vs 25 (Tocilizumab) | 5.72e-05 s⁻¹ | 136000 M⁻¹ s⁻¹ |  |  |  |  |
| B19 |  |  |  |  |  |  |  |  | 0.0296 nM | 96.3 fold vs 25 (Tocilizumab) | 8.6e-06 s⁻¹ | 291000 M⁻¹ s⁻¹ |  |  |  |  |
| B20 |  |  |  |  |  |  |  |  | 1.65 nM | 1.7 fold vs 25 (Tocilizumab) | 0.000218 s⁻¹ | 132000 M⁻¹ s⁻¹ |  |  |  |  |
| B21 |  |  |  |  |  |  |  |  | 0.141 nM | 20.2 fold vs 25 (Tocilizumab) | 3.38e-05 s⁻¹ | 239000 M⁻¹ s⁻¹ |  |  |  |  |
| B22 |  |  |  |  |  |  |  |  |  |  |  |  | 0.241 nM | 11.6 fold vs 25 (Tocilizumab) | 3.39e-05 s⁻¹ | 141000 M⁻¹ s⁻¹ |
| B23 |  |  |  |  |  |  |  |  | 0.0674 nM | 42.3 fold vs 25 (Tocilizumab) | 1.47e-05 s⁻¹ | 218000 M⁻¹ s⁻¹ |  |  |  |  |
| B24 | 0.156 nM | 11 fold vs 25 (Tocilizumab) | 5.99e-05 s⁻¹ | 385000 M⁻¹ s⁻¹ | 0.1 nM | 13.4 fold vs 25 (Tocilizumab) | 2.92e-05 s⁻¹ | 292000 M⁻¹ s⁻¹ |  |  |  |  |  |  |  |  |
| B25 |  |  |  |  |  |  |  |  | 0.334 nM | 8.5 fold vs 25 (Tocilizumab) | 3.17e-05 s⁻¹ | 95000 M⁻¹ s⁻¹ |  |  |  |  |
